Biological target: T1, Protein tyrosine kinase 7 (PTK 7) (UniProt Q13308 31-704)
T1 sequence: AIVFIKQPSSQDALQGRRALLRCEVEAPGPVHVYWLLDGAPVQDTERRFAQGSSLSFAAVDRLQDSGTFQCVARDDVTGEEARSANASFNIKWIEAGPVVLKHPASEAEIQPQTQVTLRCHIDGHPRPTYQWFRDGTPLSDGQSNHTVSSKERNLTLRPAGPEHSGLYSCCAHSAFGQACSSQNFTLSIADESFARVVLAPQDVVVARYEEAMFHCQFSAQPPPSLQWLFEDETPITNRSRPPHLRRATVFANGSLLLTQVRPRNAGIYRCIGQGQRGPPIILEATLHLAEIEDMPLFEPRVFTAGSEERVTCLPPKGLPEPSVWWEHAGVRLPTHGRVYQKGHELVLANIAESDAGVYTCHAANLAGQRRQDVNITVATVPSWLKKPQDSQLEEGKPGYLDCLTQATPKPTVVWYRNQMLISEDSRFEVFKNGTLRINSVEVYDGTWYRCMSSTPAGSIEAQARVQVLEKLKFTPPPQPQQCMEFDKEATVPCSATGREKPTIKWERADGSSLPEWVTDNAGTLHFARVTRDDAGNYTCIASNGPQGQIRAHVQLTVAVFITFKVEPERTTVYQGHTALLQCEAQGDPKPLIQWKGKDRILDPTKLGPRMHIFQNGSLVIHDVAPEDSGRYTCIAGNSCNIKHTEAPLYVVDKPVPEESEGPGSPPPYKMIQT
Experiment: competition: displacement of y-CDs-APT from Fe3O4-cDNA, ratiometric fluorescence; Fe3O4-cDNA (S2) competitor strand; PTK7 0.1-200 ng/mL, LOD 0.016 ng/mL; Buffer, salt and pH not given in material; probe hybridisation 25 °C, 60 min; DNase I amplification
Details: protein: recombinant; label: y-CDs (emission 580 nm); assayed pre-hybridised to partly complementary cDNA S2 on Fe3O4; PTK7 displaces S2

ATCTAACTGCTGCGCCGCCGGGAAAATACTGTACGGTTAGA (ssDNA, conjugated to yellow carbon dots (y-CDs); attachment end not stated) [APT (PTK7 aptamer), as y-CDs-APT]
binding result: binds
